From PMC1931443, “Vertebrate DM domain proteins bind similar DNA sequences and can heterodimerize on DNA” come the findings set out here.

Series [1] concerns the target T1, DMRT5 (mouse, UniProt A2A9A2 1-531). Put plainly: EMSA supershift; 9E10; EMSA: 10 mM Tris-HCl pH 7.9, 100 mM KCl, 10% glycerol, 5 mM MgCl2, 1 mM spermidine, 0.075% Triton-X-100, 1 mM DTT, 1 ug BSA, 0.1 ug dI-dC, 75 ng plasmid DNA, 0.5 ng probe, 4 ul IVT mix in 20 ul, on ice 10 min; gel at 4 C; IVT with 20 uM ZnSO4. The settings on record: protein: ivt; tags: N-terminal Myc; label: 32P (Klenow fill-in); 5' overhang 4 nt both ends (filled in on labeling). On the technique in general: A gel shift assay detects complexes by their altered migration in electrophoresis.

The target of a further series is DMRT4 (mouse, UniProt Q8CFG4 1-490). Put plainly: EMSA; complex fails to enter gel (possible aggregate); EMSA: 10 mM Tris-HCl pH 7.9, 100 mM KCl, 10% glycerol, 5 mM MgCl2, 1 mM spermidine, 0.075% Triton-X-100, 1 mM DTT, 1 ug BSA, 0.1 ug dI-dC, 75 ng plasmid DNA, 0.5 ng probe, 4 ul IVT mix in 20 ul, on ice 10 min; gel at 4 C; IVT with 20 uM ZnSO4. The settings on record: protein: ivt; tags: C-terminal Myc; chain copies: 2; label: 32P (Klenow fill-in); 5' overhang 4 nt both ends (filled in on labeling).

In series [2] the target is T2, DMRT3 (mouse, UniProt Q80WT2 1-476). The experiment in a line: EMSA supershift; mainly dimer; 9E10; EMSA: 10 mM Tris-HCl pH 7.9, 100 mM KCl, 10% glycerol, 5 mM MgCl2, 1 mM spermidine, 0.075% Triton-X-100, 1 mM DTT, 1 ug BSA, 0.1 ug dI-dC, 75 ng plasmid DNA, 0.5 ng probe, 4 ul IVT mix in 20 ul, on ice 10 min; gel at 4 C; IVT with 20 uM ZnSO4. The settings on record: protein: ivt; tags: N-terminal Myc; label: 32P (Klenow fill-in); 5' overhang 4 nt both ends (filled in on labeling).

The target in series [3] is T1, DMRT5. Put plainly: competition; 40-fold excess; tolerated; EMSA: 10 mM Tris-HCl pH 7.9, 100 mM KCl, 10% glycerol, 5 mM MgCl2, 1 mM spermidine, 0.075% Triton-X-100, 1 mM DTT, 1 ug BSA, 0.1 ug dI-dC, 75 ng plasmid DNA, 0.5 ng probe, 4 ul IVT mix in 20 ul, on ice 10 min; gel at 4 C; IVT with 20 uM ZnSO4. The settings on record: protein: ivt; tags: N-terminal Myc; 5' overhang 4 nt both ends.

Series [4] deals with T2, DMRT3. Put plainly: EMSA supershift; primarily monomer; 9E10; EMSA: 10 mM Tris-HCl pH 7.9, 100 mM KCl, 10% glycerol, 5 mM MgCl2, 1 mM spermidine, 0.075% Triton-X-100, 1 mM DTT, 1 ug BSA, 0.1 ug dI-dC, 75 ng plasmid DNA, 0.5 ng probe, 4 ul IVT mix in 20 ul, on ice 10 min; gel at 4 C; IVT with 20 uM ZnSO4. The settings on record: protein: ivt; tags: N-terminal Myc; label: 32P (Klenow fill-in); 5' overhang 4 nt both ends (filled in on labeling).

T2 sequence (Q80WT2 whole entry): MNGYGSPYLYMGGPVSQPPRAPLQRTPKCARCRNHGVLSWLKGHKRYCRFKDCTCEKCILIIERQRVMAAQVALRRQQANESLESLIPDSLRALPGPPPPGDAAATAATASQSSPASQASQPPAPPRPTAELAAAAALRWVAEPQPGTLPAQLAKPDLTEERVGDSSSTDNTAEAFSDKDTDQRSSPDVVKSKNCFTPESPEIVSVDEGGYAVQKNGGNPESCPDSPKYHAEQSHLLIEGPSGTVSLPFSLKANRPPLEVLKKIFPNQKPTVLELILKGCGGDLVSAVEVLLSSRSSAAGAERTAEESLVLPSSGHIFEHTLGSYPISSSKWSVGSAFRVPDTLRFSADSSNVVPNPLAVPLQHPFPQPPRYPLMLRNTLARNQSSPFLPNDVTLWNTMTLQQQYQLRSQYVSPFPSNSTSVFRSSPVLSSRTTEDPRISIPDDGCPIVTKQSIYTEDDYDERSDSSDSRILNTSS
T1 sequence (A2A9A2 whole entry): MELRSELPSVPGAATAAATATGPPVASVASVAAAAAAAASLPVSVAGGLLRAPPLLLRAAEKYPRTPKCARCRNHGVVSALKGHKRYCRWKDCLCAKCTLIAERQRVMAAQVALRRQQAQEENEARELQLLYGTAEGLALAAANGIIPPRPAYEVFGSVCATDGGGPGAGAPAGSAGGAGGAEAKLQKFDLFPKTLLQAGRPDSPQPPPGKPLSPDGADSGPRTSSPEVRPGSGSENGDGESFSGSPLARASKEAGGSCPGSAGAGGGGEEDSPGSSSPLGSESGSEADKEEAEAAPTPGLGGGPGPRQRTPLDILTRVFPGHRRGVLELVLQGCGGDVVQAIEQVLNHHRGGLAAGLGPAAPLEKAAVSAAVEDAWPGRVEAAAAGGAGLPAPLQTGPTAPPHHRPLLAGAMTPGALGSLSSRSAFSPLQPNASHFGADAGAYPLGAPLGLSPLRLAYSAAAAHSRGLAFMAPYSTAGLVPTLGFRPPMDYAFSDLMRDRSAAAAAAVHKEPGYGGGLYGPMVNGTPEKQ
Chain of DMRT4 (Q8CFG4 whole entry): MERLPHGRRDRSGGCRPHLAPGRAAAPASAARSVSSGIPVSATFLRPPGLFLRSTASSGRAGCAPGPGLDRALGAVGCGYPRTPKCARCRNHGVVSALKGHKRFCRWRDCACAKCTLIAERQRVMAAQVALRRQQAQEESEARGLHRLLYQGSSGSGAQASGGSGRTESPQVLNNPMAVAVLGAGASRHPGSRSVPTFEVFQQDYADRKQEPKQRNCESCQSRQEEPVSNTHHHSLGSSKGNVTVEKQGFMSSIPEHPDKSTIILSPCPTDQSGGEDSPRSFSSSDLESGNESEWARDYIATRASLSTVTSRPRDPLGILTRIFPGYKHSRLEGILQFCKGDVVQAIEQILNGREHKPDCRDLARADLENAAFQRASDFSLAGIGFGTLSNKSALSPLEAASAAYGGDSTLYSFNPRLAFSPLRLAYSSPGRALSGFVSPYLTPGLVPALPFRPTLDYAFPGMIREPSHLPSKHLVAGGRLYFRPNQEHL

B1: 1RE (Figure 2) (dsDNA)
DNA 1: TCGAGCCCGCAACAATGTTGCAAATC
DNA 2: TCGAGATTTGCAACATTGTTGCGGGC
On to B1, for which the binding result with DMRT5 [1], with DMRT4 and with DMRT3 [2] was “binds” in each case.

B2: DMRT1 site -8G (dsDNA)
DNA 1: TCGAGATGTGATACATTGTTGC
DNA 2: TCGAGCAACAATGTATCACATC
Consider B2, for which the binding result in the series with DMRT5 [3] is listed as “binds”.

B3: 3RE (dsDNA)
DNA 1: TCGAGAACAATGTAACAATTTCGCCC
DNA 2: TCGAGGGCGAAATTGTTACATTGTTC
For B3, the binding result with DMRT3 [4] is “binds”.
